According to US20220252601A1 (JW BIOSCIENCE, published 2022):

Assays:
Test in all cases: indirect ELISA, antigen coated at 1 µg/ml
[1] = target: T1, AIMP1 (aminoacyl tRNA synthase complex-interacting multifunctional protein 1) (UniProt Q12904 1-312, limits assumed)
T1 construct: also called p43
T1 sequence (looked up): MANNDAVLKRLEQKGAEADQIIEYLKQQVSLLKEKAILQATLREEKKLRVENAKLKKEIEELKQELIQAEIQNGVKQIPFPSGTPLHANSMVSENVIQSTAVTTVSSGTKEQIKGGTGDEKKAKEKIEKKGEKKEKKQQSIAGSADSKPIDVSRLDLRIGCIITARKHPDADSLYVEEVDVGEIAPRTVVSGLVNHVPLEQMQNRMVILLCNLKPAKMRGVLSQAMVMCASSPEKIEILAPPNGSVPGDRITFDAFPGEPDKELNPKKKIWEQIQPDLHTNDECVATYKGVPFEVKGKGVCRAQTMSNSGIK

[2] = target: KRS (lysyl tRNA synthetase) (UniProt Q15046 1-597, limits assumed)
Chain of KRS (lysyl tRNA synthetase) (Q15046 whole entry): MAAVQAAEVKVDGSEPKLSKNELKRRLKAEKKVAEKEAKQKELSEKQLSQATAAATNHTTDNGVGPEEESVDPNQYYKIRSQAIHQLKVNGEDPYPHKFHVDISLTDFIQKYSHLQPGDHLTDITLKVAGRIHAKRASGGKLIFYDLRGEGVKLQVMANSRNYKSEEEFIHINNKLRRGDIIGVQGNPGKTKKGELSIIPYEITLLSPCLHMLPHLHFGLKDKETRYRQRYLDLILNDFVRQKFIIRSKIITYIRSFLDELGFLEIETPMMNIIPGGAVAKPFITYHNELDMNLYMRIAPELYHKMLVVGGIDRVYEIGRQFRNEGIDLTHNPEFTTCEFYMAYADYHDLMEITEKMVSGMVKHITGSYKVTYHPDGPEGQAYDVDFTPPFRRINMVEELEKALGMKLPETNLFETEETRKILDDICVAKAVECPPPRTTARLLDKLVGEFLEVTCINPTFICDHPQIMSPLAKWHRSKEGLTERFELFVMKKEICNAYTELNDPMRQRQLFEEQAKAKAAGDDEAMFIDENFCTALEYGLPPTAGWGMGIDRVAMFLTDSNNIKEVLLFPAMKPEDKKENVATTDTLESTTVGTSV

[3] = target: T2, GRS (glycyl tRNA synthetase) (UniProt P41250 55-739, limits assumed)
T2 sequence (looked up): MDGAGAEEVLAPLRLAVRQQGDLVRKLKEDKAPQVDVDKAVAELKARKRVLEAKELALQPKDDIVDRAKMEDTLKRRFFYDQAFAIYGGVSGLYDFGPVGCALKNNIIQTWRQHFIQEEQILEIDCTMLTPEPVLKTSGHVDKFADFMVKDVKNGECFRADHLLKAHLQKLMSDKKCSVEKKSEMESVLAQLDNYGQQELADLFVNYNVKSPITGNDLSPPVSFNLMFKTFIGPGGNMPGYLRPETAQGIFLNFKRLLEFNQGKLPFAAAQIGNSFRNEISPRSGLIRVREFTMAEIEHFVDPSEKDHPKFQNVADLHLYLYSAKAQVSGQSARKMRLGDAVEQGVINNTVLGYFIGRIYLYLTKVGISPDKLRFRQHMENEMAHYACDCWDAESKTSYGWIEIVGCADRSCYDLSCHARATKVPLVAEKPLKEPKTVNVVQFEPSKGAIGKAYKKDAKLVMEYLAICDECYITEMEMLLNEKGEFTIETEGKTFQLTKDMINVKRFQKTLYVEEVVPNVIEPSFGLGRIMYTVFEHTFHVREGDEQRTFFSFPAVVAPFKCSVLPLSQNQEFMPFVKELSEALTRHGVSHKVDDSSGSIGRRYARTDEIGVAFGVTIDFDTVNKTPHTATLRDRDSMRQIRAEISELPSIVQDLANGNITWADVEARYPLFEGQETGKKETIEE

[4] = target: T3, CRS (cysteinyl-tRNA synthetase) (UniProt P49589 1-748, limits assumed)
T3 sequence (looked up): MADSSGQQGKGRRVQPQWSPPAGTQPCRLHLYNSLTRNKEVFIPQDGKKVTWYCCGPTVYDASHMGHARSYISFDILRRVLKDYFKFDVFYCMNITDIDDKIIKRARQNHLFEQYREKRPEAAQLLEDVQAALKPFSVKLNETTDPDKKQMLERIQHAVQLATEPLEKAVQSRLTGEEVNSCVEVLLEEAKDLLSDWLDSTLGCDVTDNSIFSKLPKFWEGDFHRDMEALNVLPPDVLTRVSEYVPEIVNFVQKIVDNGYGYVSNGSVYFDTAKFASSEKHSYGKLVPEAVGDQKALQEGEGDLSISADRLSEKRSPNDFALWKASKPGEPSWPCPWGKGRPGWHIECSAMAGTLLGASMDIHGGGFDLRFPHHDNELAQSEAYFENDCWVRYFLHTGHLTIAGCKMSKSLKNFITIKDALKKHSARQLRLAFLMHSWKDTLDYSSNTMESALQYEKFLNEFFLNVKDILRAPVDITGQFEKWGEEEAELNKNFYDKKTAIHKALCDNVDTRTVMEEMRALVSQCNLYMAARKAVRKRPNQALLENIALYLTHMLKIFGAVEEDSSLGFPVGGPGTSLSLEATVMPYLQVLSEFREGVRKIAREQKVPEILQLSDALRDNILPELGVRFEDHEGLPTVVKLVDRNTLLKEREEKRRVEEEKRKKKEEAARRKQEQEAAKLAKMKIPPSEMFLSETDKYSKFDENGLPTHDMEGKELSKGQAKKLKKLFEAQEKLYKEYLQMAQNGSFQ

Measured: binding result

B1: 3B6 (antibody, V domains shown)
VH: EVQLLESGGGLVQPGGSLRLSCAASGFTFSSYSMSWVRQAPGKGLEWVSAISYDNGNTYYADSVKGRFTISRDNSKNTLYLQMNSLRAEDTAVYYCAKGATTQPHTSFDYWGQGTLVTVNS
VL: QSVLTQPPSASGTPGQRVTISCSGSSSNIGNNNVSWYQQLPGTAPKLLIYYNSHRPSGVPDRFSGSKSGTSASLAISGLRSEDEADYYCGTWDASLSAYVFGGGTKLTVL
modifications: Antibody was biotin-attached in the ELISA of Example 5; site not stated.
no binding (tested: 500 ng/ml): all assays above

B2: 4H9 (antibody, V domains shown)
VH: EVQLLESGGGLVQPGGPLRLSCAASGFTFSNYAMSWVRQAPGKGLEWVSSIYPDGGGIYYADSVKGRFTISRDNSKNTLYLQMNSLRAEDTAVYYCARDLYPFGPDTFDYWGQGTLVTVSS
VL: QSVLTQPPSASGTPGQRVTISCSGSSSNIGSNDVTWYQQLPGTAPKLLIYDNSKRPSGVPDRFSGSKSGTSASLAISGLRSEDEADYYCGAWDDSLSGYVFGGGTKLTVL
modifications: Antibody was biotin-attached in the ELISA of Example 5; site not stated.
no binding (tested: 500 ng/ml): all assays above

B3: 4G4 (antibody, V domains shown)
VH: EVQLLESGGGLVQPGGSLRLSCAASGLTFSNYAMSWVRQAPGKGLEWVSWISPGDGNKYYADSVRGRFTVSRDNSKNTLYLQMNSLRAEDTAVYYCARVTIPCRRTTCYSANGMDVWGQGTLVTVSS
VL: QSVLTQPPSASGTPGQRVTISCSGSSSNIGSNSVTWYQQLPGTAPKLLIYHDSHPPSGVPDRFSGSKSGTSASLAISGLRSEDEADYYCAAWDDSLSGYVFGGGTKLTVL
modifications: Antibody was biotin-attached in the ELISA of Example 5; site not stated.
no binding (tested: 500 ng/ml): all assays above

B4: 1D4C3 (antibody, V domains shown)
VH: QAYLQQSGAELVRPGASVKMSCKASGYTFTSYNMHWVKQTPRQGLEWIGAIYPGNGDSSYNQKFKGKATLTVGKSSSTAYMQLSSLTSEDSAVYFCARWHYGSTYYAMDYWGQGTSVTVSS
VL: DIQMTQTTSSLSASLGDRVTISCRASQDISNYLNWFQQKPDGTVKLLIYYTSRLHSGVPSRFSGSGSGTDYSLTISNLEQEDFATYFCQQGKTLPHTFGGGTKLEIK
modifications: Antibody was biotin-attached in the ELISA of Example 5; site not stated.
notes: detected with anti-mouse HRP; also called 1D4C4
no binding (tested: 500 ng/ml): all assays above

B5: 3B10H5 (antibody, V domains shown)
VH: QAYLQQSGAELVRPGASVKMSCKASGYTFTSYNLHWVKQTPRQGLKWIGAIYPGNGDTSYNQKFKGKATLTVDKSSSTAYMQLSSLTSEDSAVYFCARWHYGSSYYAMDYWGQGTSVTVSS
VL: DIQMTQTTSSLSASLGDRVTISCRASQDISNYLNWYQQKPDGTVKLLISYTSRLHSGVPSRFSGSGSGTDYSLTISNLEQEDIATYFCQQGYTLPHTFGGGTKLEIK
modifications: Antibody was biotin-attached in the ELISA of Example 5; site not stated.
notes: detected with anti-mouse HRP
no binding (tested: 500 ng/ml): all assays above
